Results reported in patent US6458943 (INSTITUT NATIONAL DE LA SANTE ET DE LA RECHERCHE MEDICALE, dated 2002).

B1: RING10 proteasome subunit library interactor (pAD-GAL4 construct, GenBank accession no. X62598) (other, UniProt P04386 761-881, looked up)
chain: PSALFGGANFNQSGNIADSSLSFTFTNSSNGPNLITTQTNSQALSQPIASSNVHDNFMNNEITASKIDDGNNSKPLSPGWTDQTAYNAFGITTGMFNTTTMDDVYNYLFDDEDTPPNPKKETTTLAFKFQHGVIAAVDSRASAGSYISALRVNKVIEINPYLLGTMSGCAADCQYWERLLAKECRLYYLRNGERISVSAASKLLSNMMCQYRGMGLSMGSMICGWDKKGPGLYYVDEHGTRLSGNMFSTGSGNTYAYGVMDSGYRPNLSPEEAYDLGRRAIAYATHRDSYSGGVVNMYHMKEDGWVKVESTDVSDLLHQYREANQ
notes: False positive of the Hf7c screen
B2: hD53 library interactor, pAD-GAL4 clone beginning at nt 204 of the hD53 cDNA (Leu9) (other)
chain: PSALFGGANFNQSGNIADSSLSFTFTNSSNGPNLITTQTNSQALSQPIASSNVHDNFMNNEITASKIDDGNNSKPLSPGWTDQTAYNAFGITTGMFNTTTMDDVYNYLFDDEDTPPNPKKELETEPLQGTDEDAVASADFSSMLSEEEKEELKAELVQLEDEITTLRQVLSAKERHLVEIKQKLGMNLMNELKQNFSKSWHDMQTTTAYKKTHETLSHAGQKATAAFSNVGTAISKKFGDMSYSIRHSISMPAMRNSPTFKSFEERVETTVTSLKTKVGGTNPNGGSFEEVLSSTAHASAQSLAGGSRRTKEEELQC
notes: range 761-881; The clone lacks hD53 residues 1-8 (starts at Leu9); Found with the hD53 bait in Y190 and with the hD52 bait in Hf7c; also called nt 204 (Leu^9)
B3: mD52 bait (GAL4 DNA-binding domain fusion, pAS2-1mD52) (other, not shown: small tags and cut ends)
chain: MDRGEQGLLKTEPVAEEGEDAVTMLSAPEALTEEEQEELRRELTKVEEEIQTLSQVLAAKEKHLAELKRKLGISSLQEFKQNIAKGWQDVTATNAYKKTSETLSQAGQKASAAFSSVGSVITKKLEDVKNSPTFKSFEEKVENLKSKVGGAKPAGGDFGEVLNSTANATSTMTTEPPPEQMTESP
notes: Fusion expressed in yeast; also called full-length mD52 bait
B4: hD52 library interactor, pAD-GAL4 clone beginning at nt 60 of the hD52 cDNA (<Met1) (other)
chain: PSALFGGANFNQSGNIADSSLSFTFTNSSNGPNLITTQTNSQALSQPIASSNVHDNFMNNEITASKIDDGNNSKPLSPGWTDQTAYNAFGITTGMFNTTTMDDVYNYLFDDEDTPPNPKKEMDRGEQGLLRTDPVPEEGEDVAATISATETLSEEEQEELRRELAKVEEEIQTLSQVLAAKEKHLAEIKRKLGINSLQELKQNIAKGWQDVTATSAYKKTSETLSQAGQKASAAFSSVGSVITKKLEDVKNSPTFKSFEEKVENLKSKVGGTKPAGGDFGEVLNSAANASATTTEPLPEKTQESL
notes: range 761-881; also called nt 60 (<Met^1)
B5: hD52 bait (GAL4 DNA-binding domain fusion, pAS2-1hD52) (other)
chain: MKLLSSIEQACDICRLKKLKCSKEKPKCAKCLKNNWECRYSPKTKRSPLTRAHLTEVESRLERLEQLFLLIFPREDLDMILKMDSLQDIKALLTGLFVQDNVNKDAVTDRLASVETDMPLTLRQHRISATSSSEESSNKGQRQLTVSMDRGEQGLLRTDPVPEEGEDVAATISATETLSEEEQEELRRELAKVEEEIQTLSQVLAAKEKHLAEIKRKLGINSLQELKQNIAKGWQDVTATSAYKKTSETLSQAGQKASAAFSSVGSVITKKLEDVKNSPTFKSFEEKVENLKSKVGGTKPAGGDFGEVLNSAANASATTTEPLPEKTQESL
notes: Fusion expressed in yeast; also called full-length hD52 bait
B6: mD52(1-95) bait (GAL4 DNA-binding domain fusion, pAS2-1mD52(1-95)) (other)
chain: MKLLSSIEQACDICRLKKLKCSKEKPKCAKCLKNNWECRYSPKTKRSPLTRAHLTEVESRLERLEQLFLLIFPREDLDMILKMDSLQDIKALLTGLFVQDNVNKDAVTDRLASVETDMPLTLRQHRISATSSSEESSNKGQRQLTVSMDRGEQGLLKTEPVAEEGEDAVTMLSAPEALTEEEQEELRRELTKVEEEIQTLSQVLAAKEKHLAELKRKLGISSLQEFKQNIAKGWQDVTATNA
notes: also called N-terminal half of mD52

Key:
[1] = target: B5; assay: yeast two-hybrid, retransfection of Hf7c
Protocol: (§1) Transformants were plated onto solid SD/-His-Trp-Leu (incorporating 35 mM 3-AT in the case of Y190 transformants) and incubated for up to 14 days at 30° C. After 3 initial days of growth, plates were inspected daily, and His+ colonies were transferred to SD/-His-Trp-Leu +0.07 M potassium phosphate pH 7+40 µg/ml X-gal plates which incorporated 35 mM 3-AT in the case of Y190 co-transformants. Colonies which remained His+, and in the case of Y190 co-transformants, were also lacZ+, were re-streaked onto fresh plates to check that all colonies were of uniform phenotype. After 6 days incubation at 30° C., yeast colonies were directly harvested, and plasmid DNA was isolated and used to transfect XL1 Blue. Mini-preparations of plasmid DNA were performed for at least 5 XL1 Blue colonies per transfection, with the results of restriction digests differentiating potential interactors from bait plasmids. […] Phenotypes of resulting co-transfectants were assayed quantitatively and/or qualitatively as described above.

[2] = target: T1, hD53 bait (GAL4 DNA-binding domain fusion, pAS2-1hD53) (human, UniProt P04386 1-147 (Saccharomyces cerevisiae entry)); assay: yeast two-hybrid screening of a human breast carcinoma cDNA library in Y190 (His+ lacZ+)
T1 construct: Fusion expressed in yeast; also called full-length hD53 bait

[3] = target: B5; assay: yeast two-hybrid screening of a human breast carcinoma cDNA library in Hf7c (His+)
Protocol: as §1

[4] = target: T2, hD54-ins2 interactor (GAL4 activation domain fusion, pACT2hD54-ins2) (human, UniProt P04386 768-881 (Saccharomyces cerevisiae entry)); assay: yeast two-hybrid, Y190 co-transfectants, HIS3/lacZ reporters; interactor (GAL4-AD fusion) against bait (GAL4-DB fusion)
T2 construct: range 768-881
Protocol: (§2) Interactions between baits and interactors were assessed by qualitatively and/or quantitatively determining HIS3 and/or lacZ reporter gene activity in Y190 co-transfectants.
(§3) Interactions between D52-like proteins within the yeast two-hybrid system, as measured by quantitative β-galactosidase assays. […] Three (or two*) colonies from each co-transfected Y190 strain were cultured in the absence of histidine, and assayed separately for β-galactosidase activity (see Methods). The mean number of β-galactosidase activity units obtained for each co-transfection is presented, ± the standard error.

[5] = target: T3, hD54+ins2 interactor (GAL4 activation domain fusion, pACT2hD54+ins2) (human, UniProt P04386 768-881 (Saccharomyces cerevisiae entry)); assay: as above
T3 construct: range 768-881
Protocol: as §2, §3

[6] = target: T4, hD52 interactor (GAL4 activation domain fusion, pAD-GAL4hD52) (human, UniProt P04386 761-881 (Saccharomyces cerevisiae entry)); assay: as above
T4 construct: range 761-881; also called hD52^c
T4 sequence: B4 chain
Protocol: as §2, §3

[7] = target: T5, hD53 interactor (GAL4 activation domain fusion, pACT2hD53) (human, UniProt P04386 768-881 (Saccharomyces cerevisiae entry)); assay: as above
T5 construct: range 768-881
T5 sequence: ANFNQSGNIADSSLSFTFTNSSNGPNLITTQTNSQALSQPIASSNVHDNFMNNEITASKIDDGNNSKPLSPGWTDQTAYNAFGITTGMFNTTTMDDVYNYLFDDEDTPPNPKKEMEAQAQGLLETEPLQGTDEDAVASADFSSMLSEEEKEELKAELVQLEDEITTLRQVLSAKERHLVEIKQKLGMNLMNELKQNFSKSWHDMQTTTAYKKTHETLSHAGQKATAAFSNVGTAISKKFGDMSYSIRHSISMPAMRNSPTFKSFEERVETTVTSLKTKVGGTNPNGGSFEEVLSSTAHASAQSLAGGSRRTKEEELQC
Protocol: as §2, §3

[8] = target: T6, mD52(1-163) interactor (GAL4 activation domain fusion, pACT2mD52(1-163)) (mouse, UniProt P04386 768-881 (Saccharomyces cerevisiae entry)); assay: as above
T6 construct: range 768-881
T6 sequence: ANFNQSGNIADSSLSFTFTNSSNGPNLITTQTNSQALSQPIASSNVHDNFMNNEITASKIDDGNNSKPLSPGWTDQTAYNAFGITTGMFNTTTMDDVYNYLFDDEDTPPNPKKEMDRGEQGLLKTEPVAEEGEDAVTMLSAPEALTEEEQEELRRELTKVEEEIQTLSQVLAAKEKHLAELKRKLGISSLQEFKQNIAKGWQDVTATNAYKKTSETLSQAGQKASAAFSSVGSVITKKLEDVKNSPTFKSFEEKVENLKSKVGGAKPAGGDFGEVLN
Protocol: as §2, §3

[9] = target: T7, eukaryotic initiation factor 4AII library interactor (pAD-GAL4 construct, DNA Database of Japan accession no. … (human, UniProt P04386 761-881; Q14240 1-407, limits assumed); assay: yeast two-hybrid, retransfection of Hf7c
T7 construct: False positive of the Hf7c screen
Protocol: as §1

[10] = target: T8, histidyl t-RNA synthetase library interactor (pAD-GAL4 construct, EBML accession no. Z 11518) (human, UniProt P04386 761-881; P12081 2-509, limits assumed); assay: yeast two-hybrid, retransfection of Hf7c
T8 construct: False positive of the Hf7c screen
T8 sequence (looked up): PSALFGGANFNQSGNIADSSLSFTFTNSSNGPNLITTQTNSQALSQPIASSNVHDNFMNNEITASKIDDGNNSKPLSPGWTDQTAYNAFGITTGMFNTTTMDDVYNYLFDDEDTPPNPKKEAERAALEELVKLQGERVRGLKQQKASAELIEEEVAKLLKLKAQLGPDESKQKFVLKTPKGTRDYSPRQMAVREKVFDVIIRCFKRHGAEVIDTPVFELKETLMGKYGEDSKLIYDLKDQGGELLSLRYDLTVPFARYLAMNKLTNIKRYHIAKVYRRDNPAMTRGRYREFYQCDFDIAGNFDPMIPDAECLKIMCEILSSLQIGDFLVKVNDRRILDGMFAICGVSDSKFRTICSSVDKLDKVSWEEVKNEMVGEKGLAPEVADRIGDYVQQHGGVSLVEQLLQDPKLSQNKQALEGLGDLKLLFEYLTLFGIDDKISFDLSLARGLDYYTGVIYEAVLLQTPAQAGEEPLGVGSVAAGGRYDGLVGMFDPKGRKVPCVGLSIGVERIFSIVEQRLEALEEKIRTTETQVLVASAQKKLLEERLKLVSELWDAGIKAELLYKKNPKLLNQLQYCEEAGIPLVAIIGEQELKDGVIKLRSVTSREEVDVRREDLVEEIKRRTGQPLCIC
Protocol: as §1

[11] = target: T5, hD53 interactor (GAL4 activation domain …); assay: yeast two-hybrid in Y190, β-galactosidase assay
Protocol: Interactions between baits and interactors were assessed by qualitatively and/or quantitatively determining HIS3 and lacZ reporter gene activity in Y190 co-transfectants. Reporter gene activities were assessed qualitatively by observing the growth and color development of Y190 co-transfectants on solid SD media lacking His, Trp and Leu (SD/-His-Trp-Leu), and incorporating 0.07 M potassium phosphate pH 7, 35 mM 3-AT, and 40 µg/ml X-gal. For quantitative assessment of interactions, β-galactosidase activity was measured using the substrate o-nitrophenyl β-D-galactopyranoside (ONPG) in liquid cultures (SD/-His-Trp-Leu +35 mM 3-AT) of Y190 co-transfectants.

## B1
[1]
  binding result: no binding

## B2
[2]
  binding result: binds
[3]
  binding result: binds

## B3
[4]
  binding result: binds
[5]
  binding result: binds
[6]
  binding result: binds
[7]
  binding result: binds
[8]
  binding result: binds

## B4
[3]
  binding result: binds

## B5
[9]
  binding result: no binding
[10]
  binding result: no binding

## B6
[11]
  binding result: binds
